The source of these data is PMC3178039 (Journal of cellular physiology, 2011).

This data set deals with the molecule itself. Briefly: SDS-PAGE and immunoblot. For orientation: Immunoblotting shows a protein as a band on a membrane.

B1: intestinal lactoferrin receptor (LfR) (receptor, human (endogenous in Caco-2), UniProt Q8WWA0 19-298, looked up)
chain: TDEANTYFKEWTCSSSPSLPRSCKEIKDECPSAFDGLYFLRTENGVIYQTFCDMTSGGGGWTLVASVHENDMRGKCTVGDRWSSQQGSKAVYPEGDGNWANYNTFGSAEAATSDDYKNPGYYDIQAKDLGIWHVPNKSPMQHWRNSSLLRYRTDTGFLQTLGHNLFGIYQKYPVKYGEGKCWTDNGPVIPVVYDFGDAQKTASYYSPYGQREFTAGFVQFRVFNNERAANALCAGMRVTGCNTEHHCIGGGGYFPEASPQQCGDFSGFDWSGYGTHVGYS
Turning to B1, the “stoichiometry N” value came to 3.

A word on the stoichiometry N: it is the number of molecules, sites or subunits per partner or assembly.
